Experimental data taken from paper PMC11796367.

Target: CVA8 virion (strain 14-943/GS/CHN/2014) (coxsackievirus A8 (CVA8), strain GS14)

B1: mKrm1-Fc (human IgG1 Fc-fused mouse KRM1 ectodomain) (Fc fusion)
chain: APGPRSGPECFTANGADYRGTQSWTALQGGKPCLFWNETFQHPYNTLKYPNGEGGLGEHNYCRNPDGDVSPWCYVAEHEDGVYWKYCEIPACQMPGNLGCYKDHGNPPPLTGTSKTSNKLTIQTCISFCRSQRFKFAGMESGYACFCGNNPDYWKHGEAASTECNSVCFGDHTQPCGGDGRIILFDTLVGACGGNYSAMAAVVYSPDFPDTYATGRVCYWTIRVPGASRIHFNFTLFDIRDSADMVELLDGYTHRVLVRLSGRSRPPLSFNVSLDFVILYFFSDRINQAQGFAVLYQATKEEPPQERPAVNQTLAEVITEQANLSVSAAHSSKVLYVITPSPSHPPQTAPG
In the case of B1, the neutralization of CVA8 strain GS14 infection of RD cells (cell viability assay) is reported as 0.32 nM.

B2: hKRM1-Fc (human IgG Fc-fused human KRM1 ectodomain) (Fc fusion)
chain: APSPGLGPECFTANGADYRGTQNWTALQGGKPCLFWNETFQHPYNTLKYPNGEGGLGEHNYCRNPDGDVSPWCYVAEHEDGVYWKYCEIPACQMPGNLGCYKDHGNPPPLTGTSKTSNKLTIQTCISFCRSQRFKFAGMESGYACFCGNNPDYWKYGEAASTECNSVCFGDHTQPCGGDGRIILFDTLVGACGGNYSAMSSVVYSPDFPDTYATGRVCYWTIRVPGASHIHFSFPLFDIRDSADMVELLDGYTHRVLARFHGRSRPPLSFNVSLDFVILYFFSDRINQAQGFAVLYQAVKEELPQERPAVNQTVAEVITEQANLSVSAARSSKVLYVITTSPSHPPQTVPG
Work on B2 yielded a neutralization of CVA8 strain GS14 infection of RD cells (cell viability assay) of 0.03 nM.
